Reference: patent publication US20100183544A1 (CSL, published 2010)

B1: PEGylated IL-11 mutein (SEQ ID NO: 3 with a single 40 kDa PEG on the Cys at position 147) (ligand)
chain: VSSDPRADLDSAVLLTRSLLADTRQLAAQMRDKFPADGDHSLDSLPTLPAIDYTLGSLQLPGVLTRLRVDLMSYLRHVQWLRRAGGPSLKTLEPELGALQARLERLLRRLQLLMSRLALPQAAPDQPVIPLGPPASACGSIRAAHAILGGLHLTLDWAVRGLLLLKTRL
modifications: mPEG2-maleimide (single 40 kDa PEG moiety) on the Cys residue introduced at position 147 (mature murine IL-11 numbering)

Experiments:
IL-11R-Fc [1] = biological target: T1, IL-11R-Fc; experiment: competition ELISA on IL-11R-Fc; reference murine W147A IL-11
T1 sequence (Q64385 whole entry, species assumed, looked up): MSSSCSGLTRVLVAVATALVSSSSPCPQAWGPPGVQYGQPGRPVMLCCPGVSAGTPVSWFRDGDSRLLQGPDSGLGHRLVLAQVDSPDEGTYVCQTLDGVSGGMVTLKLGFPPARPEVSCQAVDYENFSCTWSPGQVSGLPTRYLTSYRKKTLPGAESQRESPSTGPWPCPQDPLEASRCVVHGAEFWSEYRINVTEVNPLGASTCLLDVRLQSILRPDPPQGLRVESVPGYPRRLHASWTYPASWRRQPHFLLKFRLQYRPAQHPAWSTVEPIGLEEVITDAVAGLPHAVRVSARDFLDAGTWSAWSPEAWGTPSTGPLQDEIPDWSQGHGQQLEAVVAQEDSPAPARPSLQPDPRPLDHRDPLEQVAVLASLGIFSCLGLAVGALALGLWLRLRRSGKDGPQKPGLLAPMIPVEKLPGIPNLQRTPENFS

[2] = biological target: T2, murine IL-11R on Ba/F3 cells stably transfected with murine IL-11R/gp130 (murine, UniProt Q64385 24-432); experiment: cell-based or functional assay
T2 sequence (looked up): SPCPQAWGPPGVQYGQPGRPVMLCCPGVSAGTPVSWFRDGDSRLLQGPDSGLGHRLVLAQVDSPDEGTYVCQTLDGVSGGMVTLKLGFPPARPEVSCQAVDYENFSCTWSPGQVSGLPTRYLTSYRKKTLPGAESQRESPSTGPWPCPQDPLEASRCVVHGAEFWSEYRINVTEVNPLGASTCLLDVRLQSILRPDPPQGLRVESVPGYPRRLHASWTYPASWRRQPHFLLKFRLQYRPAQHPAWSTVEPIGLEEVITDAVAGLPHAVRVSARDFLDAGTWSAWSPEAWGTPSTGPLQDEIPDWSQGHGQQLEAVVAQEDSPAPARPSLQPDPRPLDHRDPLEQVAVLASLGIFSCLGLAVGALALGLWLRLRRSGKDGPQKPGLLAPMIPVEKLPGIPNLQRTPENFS

IL-11R-Fc [3] = biological target: T1, IL-11R-Fc; experiment: IL-11R binding ELISA; reference non-PEGylated mutein

Row | Molecule | fold higher binding affinity than murine W147A IL-11 (IL-11R-Fc [1]) | fold reduction against non-PEGylated mutein in antagonism of IL-11-induced Ba/F3 cell proliferation [2] | fold reduction of IL-11R binding affinity relative to non-PEGylated mutein (IL-11R-Fc [3])
1 | IL-11 mutein of SEQ ID NO: 1 (murine IL-11 with AMSAG at positions 58-62 replaced by PAIDY and W147A), N-terminal His-tagged (from UniProt P47873 22-199) (ligand) | 20 fold | – | –
2 | B1 | – | ~10 fold | 5 fold
